Measurements: patent US9982287B2, “Enterokinase cleavable polypeptides” (Novo Nordisk A/S, priority 2013, dated 2018)
No end group written: not given here. *: point of attachment. Dnp = O=[N+]([O-])c1ccc(*)c([N+](=O)[O-])c1; 2Abz = Nc1ccccc1C(=O)O

Legend:
[1] = target: T1, Enterokinase bovine light chain variant (C112A, L134K, I135K) (Bos taurus, UniProt P98072, C912A/I935K/L934K); assay: EK-kinetics_2: initial rates of Enterokinase hydrolysis of full length GLP-1 with an N-terminal extension (UPLC); format: biochemical; details: Z1 = entire [Arg34]GLP-1(9-37), N-terminal extension Z2; slowest D4K site in this set = 100%; initial substrate 1 mg/ml, pH 8.5
T1 construct: the bovine light chain variant (C112A, L134K, I135K) as described in WO2013/092855A1; made in house
Method: Method: EK-kinetics_2 • EK-kinetics_2 was performed by calculating initial rates of hydrolysis of full length GLP-1 with an N-terminal extension. Substrate concentrations were in the range 150-300 μM. The hydrolysis reaction was started by adding an amount of enterokinase giving a final concentration of 9.5 nM. Samples were taken after 6.2 min, 18.7 min, 43.7 min, 86.3 min, 151.3 min, and 243.8 min and quenched by a 1+9 dilution into 5% acetic acid. A suitable method was used on a Waters iClass UPLC to separate and individually quantify remaining substrate and formed product on an analytical reversed-phase column by integrating peak areas. An equation of the following form was fitted to the raw data: […]
wherein t is time, cs0 is initial substrate concentration, cE is enzyme concentration, cPt is product concentration at time t, cSt is substrate concentration at time t, kcat and Km are hydrolysis parameters, and Ki is product inhibition constant. A constant Ki of 0.1 μM was used for all reactions. Initial hydrolysis rates were calculated based on the parameters determined for a initial substrate concentration of 1 mg/ml for all peptides. All reactions were performed in 50 mM Tris buffer, 1 mM EDTA, pH 8.5.
(§1) • The Enterokinase enzymes used for examples herein was the bovine light chain variant (C112A, L134K, I135K) as described in WO2013/092855A1.

[2] = target: T1, Enterokinase bovine light chain variant (C112A, L134K, I135K); assay: EK-kinetics_1: initial rates of Enterokinase hydrolysis of intramolecularly quenched fluorogenic peptides; format: biochemical; details: Z1 = HAEGT, X6 absent; for Activity (%): relative Enterokinase cleavage rate of reference substrates: reference EK-sites, normalised to substrate with D4K site = 100%
Method: These peptide substrates have the following general structure: Z2*-X6-X5-X4-GDR-Z1* Formula (II) • wherein • X6-X5-X4 have the same meaning as in formula (I) (each being an amino acid, however X6 being optional), • Z2 is Lys(Dnp) and • Z1* is Z1-Lys(Abz)amide, where Z1 is as defined in formula (I). • SPPS_I was performed on a Multipep RSi synthesizer from Intavis Bioanalytical Instruments AG (Koeln, Germany) at 3-μmol scale in parallel using 2.5 fold excess of Fmoc-amino acids (300 mM in NMP with 300 mM Oxyma Pure®) relative to resin loading e.g. Rinkamide-Chematrix (0.5 mmol/g). Fmoc-deprotection was performed using 20% piperidine in NMP. Coupling was performed using 1:1:1:1 amino acid/Oxyma Pure®/DIC/collidine in NMP. All amino acids were “double or triple coupled”, meaning that after the first coupling (60 min), the resin is drained and more reagents are added (amino acid, Oxyma Pure®, DIC, and collidine), and the mixture allowed to react again (60 min).
Method: EK-Kinetics_1 • EK-kinetics_1 was performed by measuring initial rates of hydrolysis of intramolecularly quenched fluorogenic peptides: Lys(Dnp)-peptide-Lys(Abz)amide according to formula (II). After measuring the background fluorescence of peptides, generally at a substrate concentration in the range of 1 to 50 μM, initial rates of hydrolysis was measured by addition of purified enterokinase enzyme at a concentration enabling reading the initial rate of hydrolysis, i.e. less than 5% hydrolysis in 30 min. Typically an enzyme concentration of 1 to 10 nM may be used. After up to one hour of hydrolysis additional enzyme was added to enable measurement of the fluorescence level at total hydrolysis. Hydrolysis rates were generally measured in 50 mM MOPS buffer, 1 mM EDTA, pH 7.5 at 25° C. using a Perkin Elmer Enspire fluorescence plate reader using 320 nm for excitation and 420 nm for emission.
as §1

T1 sequence (P98072 801-1035 C912A/L934K/I935K): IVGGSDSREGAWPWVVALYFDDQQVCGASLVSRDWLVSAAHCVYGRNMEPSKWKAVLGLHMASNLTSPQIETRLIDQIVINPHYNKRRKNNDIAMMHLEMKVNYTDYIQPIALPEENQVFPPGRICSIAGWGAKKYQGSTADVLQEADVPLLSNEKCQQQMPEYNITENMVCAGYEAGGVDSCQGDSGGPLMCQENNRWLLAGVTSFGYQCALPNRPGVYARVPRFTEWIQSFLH

Row | Substance | Activity (%): relative Enterokinase cleavage rate of reference substrates [2] | further results
1 | DVKPGQPLYDEGDR-[Arg34]GLP-1(9-37) (DVKPGQPLYDEGDREGTFTSDVSSYLEGQAAKEFIAWLVRGRG; Enterokinase cleavable polypeptide) [Example 119] | – | Activity (%): relative Enterokinase cleavage rate [1]: 707%
2 | Lys(Dnp)-IMGDRHAEGT-Lys(Abz)amide (K(Dnp)IMGDRHAEGTK(2Abz)-NH2; N-terminus assumed; SMILES CC[C@H](C)[C@H](NC(=O)[C@@H](N)CCCCNc1ccc([N+](=O)[O-])cc1[N+](=O)[O-])C(=O)N[C@@H](CCSC)C(=O)NCC(=O)N[C@@H](CC(=O)O)C(=O)N[C@@H](CCCNC(=N)N)C(=O)N[C@@H](Cc1c[nH]cn1)C(=O)N[C@@H](C)C(=O)N[C@@H](CCC(=O)O)C(=O)NCC(=O)N[C@H](C(=O)N[C@@H](CCCCNC(=O)c1ccccc1N)C(N)=O)[C@@H](C)O) [Example 111] | 125% | –
3 | Lys(Dnp)-AEGDR-HAEGT-Lys(Abz)amide (K(Dnp)AEGDRHAEGTK(2Abz)-NH2; N-terminus assumed; SMILES C[C@H](NC(=O)[C@H](Cc1c[nH]cn1)NC(=O)[C@H](CCCNC(=N)N)NC(=O)[C@H](CC(=O)O)NC(=O)CNC(=O)[C@H](CCC(=O)O)NC(=O)[C@H](C)NC(=O)[C@@H](N)CCCCNc1ccc([N+](=O)[O-])cc1[N+](=O)[O-])C(=O)N[C@@H](CCC(=O)O)C(=O)NCC(=O)N[C@H](C(=O)N[C@@H](CCCCNC(=O)c1ccccc1N)C(N)=O)[C@@H](C)O) [Example 1] | – | Activity (%): relative Enterokinase cleavage rate ([2]; initial rate normalised to substrate with D4K site = 100%): 382%
4 | Lys(Dnp)-INDDRHAEGT-Lys(Abz)amide (K(Dnp)INDDRHAEGTK(2Abz)-NH2; N-terminus assumed; SMILES CC[C@H](C)[C@H](NC(=O)[C@@H](N)CCCCNc1ccc([N+](=O)[O-])cc1[N+](=O)[O-])C(=O)N[C@@H](CC(N)=O)C(=O)N[C@@H](CC(=O)O)C(=O)N[C@@H](CC(=O)O)C(=O)N[C@@H](CCCNC(=N)N)C(=O)N[C@@H](Cc1c[nH]cn1)C(=O)N[C@@H](C)C(=O)N[C@@H](CCC(=O)O)C(=O)NCC(=O)N[C@H](C(=O)N[C@@H](CCCCNC(=O)c1ccccc1N)C(N)=O)[C@@H](C)O) [Example 112] | 126% | –
